Test results reported in patent US20240392013A1, “IL1RAP ANTIBODIES AND USES THEREOF” (STELEXIS THERAPEUTICS, LLC, priority 2021, published 2024).

Assays:
Type in all cases: cell-based, human
[1] = tested on: AML patient samples; test: Clonogenic capacity of AML patient samples; conditions: 333 nM, two weeks
Experimental: AML patient samples or healthy control samples (4000 cells) were washed and resuspended in 30 μl Iscove's Modified Dulbecco's Medium (IMDM) media supplemented with 2% FBS. Cells […] were mixed with 3 ml methylcellulose (MthoCult H4034 Optimum) supplemented with pen/strep or primocin (100 μg/ml) and IL1RAP antibodies (333 nM) and 1 ml were seeded in 35 mm dishes in duplicates. The dishes were incubated at 37° C./5% CO2 in humidified incubator for 14-16 days. Colonies were counted using inverted microscope.

[2] = tested on: IL1-induced downstream signaling (phospho-p38, NFκB) in THP-1 cells; test: IL1 signaling in AML (THP-1) cells, Western blot; conditions: antibody 20 μg/ml, IL1β 100 ng/ml
Experimental: (§1) AML patient samples or cancer cells (AML, chronic myelogenous leukemia (CML), pancreatic, head and neck squamous cell carcinoma (HNSCC), bladder, non-small-cell lung carcinoma (NSCLC), colorectal and triple-negative breast cancer (TNBC)) were seeded in 6-well plates (5×10^5 cells/well) and incubated overnight at 37° C./5% CO2 in humified incubator. In experiments conducted in cancer cell lines, cells were washed 2× with PBS and serum-starved for 3 hours. Following, cells were treated with IL1RAP antibodies at concentration of 20 μg/ml and incubated for 1 h at 37° C./5% CO2 in humidified incubator. After 1 h, cells were treated with IL1β (Invivogen, cat: rcyec-hil1b), IL33 (Adipogen, cat: AG-40B-0160-C010) or IL36 cytokines (R@D, cat: 6836IL) at 100 ng/ml and incubated for 15 more minutes. Cells were harvested on ice after 1× wash with cold PBS and were centrifuged for 5 minutes at 5000 rpm at 4° C. Cells were then lysed with NP-40 buffer for 5 minutes on ice and centrifuged for 15 minutes at 15000 rpm at 4° C. Supernatants were collected and protein concentrations were determined by BCA (Thermofisher, Cat #PI23225). […] After 3× washes, ECL was applied (Thermofisher, Cat #32106) and proteins were detected after exposure to autoradioraphic films (Worldwide medical products, Cat #41101001) and protein intensity was quantitated using ImageJ software.

[3] = tested on: IL33-induced downstream signaling (phospho-ERK, p38, NFκB) in AML patient samples; test: IL33 signaling in AML patient samples, Western blot; conditions: antibody 20 μg/ml, IL33 100 ng/ml
Experimental: as §1

B1: 74804_12A21B: anti-IL1RAP mAb; VH SEQ ID NO:6, VL SEQ ID NO:23, κ light chain (antibody, V domains shown)
VH: QVQLLQSGAEVKKPGSSVKVSCKASGGTFSIYAIDWVRQAPGQGLEWMGGIIPIFGTANSAQKFQGRVTITADKSTSTAYMELSSLRSEDTAVYYCARNGATSDAFDMWGQGTMVTVSS
VL: EIVLTQSPGTLSLSPGERATLSCRASLSVSSNYLAWFQQRPGQAPRLLIHGVSRRATGIPDRFSGSGSGTDFTLTISRLEPEDFAVYYCQQYGSSPLTFGGGTKVEIK
modifications: 74804_12A21B VH and 74804_29D13A VH; 74804_12A21B VL
B1 was tested, and the “Inhibition of clonogenic capacity (colony formation)” value [1] was “inhibited the clonogenic capacity”, the “Inhibition of IL1 signaling (phosphorylation of p38 and NFκB)” value [2] was “inhibited IL1 signaling in these AML (THP-1) cells” and the “Inhibition of IL33 signaling (phosphorylation of ERK, p38 and NFκB)” value [3] was “inhibited IL33 signaling in AML patient samples”.
